Assay results published in patent publication US20240218057A1.

Tests used:
[1] = biological target: SARS-COV-2 RBD (SARS-COV-2) (UniProt P0DTC2); experiment: ELISA, RBD coated
[2] = biological target: SARS-CoV-2 receptor-binding domain (WT RBD; S protein residues 319-539) (SARS-CoV-2) (UniProt P0DTC2); experiment: BLI (Octet Red), IgG on protein A biosensor, WT RBD in solution, 1:1 fit

C144 (antibody) was tested, and the EC50 [1] was 1.83 ng/mL and the Kd [2] was 0.714 µM.
